Results from patent US10413588B2, “Probiotic function of human intelectin” (Wisconsin Alumni Research Foundation, priority 2015, dated 2019).

Experiment: hIntL-1 carbohydrate binding ELISA-like assay
Conditions: ligands other than β-Galf
Description: To fabricate carbohydrate-displaying surfaces, 0.5 μg of streptavidin (Prozyme, cat. no. SA20) was adsorbed onto a Maxisorp (Nunc) flat bottom 96 well plate in PBS. Wells were washed with PBS and then coated with 5 μM of carbohydrate-biotin ligand in PBS for 1 hour at 22° C. Wells were blocked with bovine serum albumin (BSA) in ELISA buffer (20 mM HEPES (7.4) 150 mM NaCl, 10 mM CaCl2, and 0.1% tween-20). Samples containing hIntL-1 were prepared by serial dilution into ELISA buffer+0.1% BSA and added to wells for 2 hours at 22° C. Wells were washed four times with ELISA buffer. Bound hIntL-1 was detected using 0.75 μg/mL of a sheep IgG hIntL-1 antibody (R&D Systems, cat. no. AF4254) in ELISA buffer+0.1% BSA for 2 hours at 22° C. Wells were washed with ELISA buffer. A donkey anti-sheep IgG horseradish peroxidase (HRP) conjugate (Jackson ImmunoResearch Laboratories) was added at a 1:5,000 dilution in ELISA buffer+0.1% BSA for 1 hour at 22° C. Wells were washed and hIntL-1 was detected colorimetrically with addition of 1-Step Ultra TMB-ELISA (Pierce). Once sufficient signal was achieved (typically <2 min.), the reaction was quenched with addition of equal volume 2 M H2SO4. Plates were read at 450 nm on an ELx800 plate reader (Bio-Tek). When testing the Ca^2+ dependency of hIntL-1, 1 mM EDTA replaced 10 mM CaCl2 in all steps. Data were analyzed on Prism6 (GraphPad). […]

B1: hIntL-1: human lectin intelectin-1, accession no. Q8WWA0; recombinant disulfide-linked trimer from HEK 293T cells, used also N-terminally Strep-tagged (Strep-hIntL-1) (protein, listed as Homo sapiens)
chain: MNQLSFLLFLIATTRGWSTDEANTYFKEWTCSSSPSLPRSCKEIKDECPSAFDGLYFLRTENGVIYQTFCDMTSGGGGWTLVASVHENDMRGKCTVGDRWSSQQGSKAVYPEGDGNWANYNTFGSAEAATSDDYKNPGYYDIQAKDLGIWHVPNKSPMQHWRNSSLLRYRTDTGFLQTLGHNLFGIYQKYPVKYGEGKCWTDNGPVIPVVYDFGDAQKTASYYSPYGQREFTAGFVQFRVFNNERAANALCAGMRVTGCNTEHHCIGGGGYFPEASPQQCGDFSGFDWSGYGTHVGYSSSREITEAAVLLFYR
In the case of B1, the “binding to other immobilized carbohydrate ligands” value is reported as “not detected”.
